The record followed here is the supplement of paper PMC10201428.

± gives the standard deviation of the averaged measurements.

The test system of series [1] is VchCAST RNA-guided transposition machinery (E. coli BL21(DE3) host, lacZ target). Kind of series: relative integration efficiency (T-RL orientation) vs wild-type transposon end (log2 (normalized fold change)); transposon end mutated: right end (5 bp flank + 75 bp right end); higher = more efficient transposition. Here is the method:
(§1)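 Pooled, barcoded VchCAST (Tn6677) mini-transposon donor libraries; each variable transposon-end sequence sits in a fixed pDonor mini-transposon context (10-bp barcode and cargo not included). Left- or right-end libraries were co-transformed with pEffector (TniQ-Cascade, TnsABC, lacZ crRNA, T7, 0.1 mM IPTG) into E. coli BL21(DE3) and grown 18 h at 37 C. T-LR and T-RL junction amplicons were sequenced; output/input barcode fold change was normalised to the mean of four wild-type barcodes and log2-transformed. Two biological replicates; zero-count/undetected variants carry floor values (-10 / -15), censored here. Barcode uncoupling by PCR recombination adds noise.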

Series [2] shares this test system. Description: relative integration efficiency (T-LR orientation) vs wild-type transposon end (log2 (normalized fold change)); transposon end mutated: right end (5 bp flank + 75 bp right end); higher = more efficient transposition. Here is the method:
as §1

For “ACAAATGTTGATACAACCATAAAATGATAATTACACCCATAAATTGATAATTATCACACCCATAAATTGATATTGCCTCTGATCATAGTCAGACCAACATTGCTACGACCCGTATTCGCACCGACAC”, the “relative integration efficiency (log2)” value was found to be 0.215 ± 0.12 in series [1] and 0.224 ± 0.075 in series [2].

Turning to “ACAGGTGTTGATACAACCATAAAATGATAATTACACCCATAAATTGATAATTATCACACCCATAAATTGATATTGCCTCTGATCATAGTCAGACCAACATTGCTACGACCCGTATTCGCACCGACAC”, the “relative integration efficiency (log2)” value in series [1] is -0.284 ± 0.012; in series [2] it was -0.1 ± 0.25.

For “ACATAAGTTGATACAACCATAAAATGATAATTACACCCATAAATTGATAATTATCACACCCATAAATTGATATTGCCTCTGATCATAGTCAGACCAACATTGCTACGACCCGTATTCGCACCGACAC”, the figures for the “relative integration efficiency (log2)” value in series [1] and in series [2] were -6.621 ± 0.045 and -4.25 ± 0.29, respectively.

On to “ACATGGGTTGATACAACCATAAAATGATAATTACACCCATAAATTGATAATTATCACACCCATAAATTGATATTGCCTCTGATCATAGTCAGACCAACATTGCTACGACCCGTATTCGCACCGACAC”, for which the “relative integration efficiency (log2)” value was -6.44 ± 0.3 in series [1] and -5.51 ± 0.64 in series [2].

For the sequence “ACATTACAAGATACAACCATAAAATGATAATTACACCCATAAATTGATAATTATCACACCCATAAATTGATATTGCCTCTGATCATAGTCAGACCAACATTGCTACGACCCGTATTCGCACCGACAC”, the “relative integration efficiency (log2)” value was -5.91 ± 0.056 in series [1] and -4.65 ± 0.93 in series [2].

In the case of “ACATTAGTCGATACAACCATAAAATGATAATTACACCCATAAATGGATAATTATCACACCCAATTTAACTATAACGCTCTGATCATAGTCAGACCAACATTGCTACGACCCGTATTCGCACCGACAC”, the “relative integration efficiency (log2)” value in series [1] is -6.76 ± 0.26; in series [2], -5.29 ± 1.4.

As for “ACATTAGTCGATACAACCATAAAATGATAATTACACCCATAAATGGATCATTATCACACCCAATTTAACTATAACGCTCTGATCATAGTCAGACCAACATTGCTACGACCCGTATTCGCACCGACAC”, the “relative integration efficiency (log2)” value in series [1] is -8.21 ± 0.66; in series [2] it was -5.41 ± 0.28.

Regarding “ACATTAGTCGATACAACCATAAAATGATAATTACACCCATAAATTCATCATTATCACACCCAATTTAACTATAACGCTCTGATCATAGTCAGACCAACATTGCTACGACCCGTATTCGCACCGACAC”, the “relative integration efficiency (log2)” value in series [1] is -7.32 ± 0.43; in series [2], -6.06 ± 1.4.

Regarding “ACATTAGTCGATACAACCATAAAATGATAATTACACCCATAAATTGATAATTATCACACCCAATTTAACTATAACGCTCTGATCATAGTCAGACCAACATTGCTACGACCCGTATTCGCACCGACAC”, the “relative integration efficiency (log2)” value in series [1] is -7.53 ± 1.2; in series [2], -5.9 ± 1.5.

As to “ACATTAGTCGATACAACCATAAAATGATAATTACACCCATAAATTGATCATTATCACACCCAATTTAACTATAACGCTCTGATCATAGTCAGACCAACATTGCTACGACCCGTATTCGCACCGACAC”, the “relative integration efficiency (log2)” value was -7.26 ± 0.69 in series [1] and -3.34 ± 1 in series [2].

For “ACATTAGTGGATACAACCATAAAATGATAATTACACCCATAAATGGATAATTATCACACCCAATTTAACTATAACGCTCTGATCATAGTCAGACCAACATTGCTACGACCCGTATTCGCACCGACAC”, the “relative integration efficiency (log2)” value in series [1] was -7.08 ± 1.1; in series [2] it was -5.46 ± 0.48.

For the sequence “ACATTAGTGGATACAACCATAAAATGATAATTACACCCATAAATTCATAATTATCACACCCAATTTAACTATAACGCTCTGATCATAGTCAGACCAACATTGCTACGACCCGTATTCGCACCGACAC”, the “relative integration efficiency (log2)” value in series [1] was -7.6 ± 0.5; in series [2] it was -5.23 ± 1.8.

Turning to “ACATTAGTGGATACAACCATAAAATGATAATTACACCCATAAATTCATCATTATCACACCCAATTTAACTATAACGCTCTGATCATAGTCAGACCAACATTGCTACGACCCGTATTCGCACCGACAC”, the “relative integration efficiency (log2)” value in series [1] is -7.21 ± 0.51; in series [2], -4.73 ± 0.58.

Regarding “ACATTAGTGGATACAACCATAAAATGATAATTACACCCATAAATTGATAATTATCACACCCAATTTAACTATAACGCTCTGATCATAGTCAGACCAACATTGCTACGACCCGTATTCGCACCGACAC”, the “relative integration efficiency (log2)” value in series [1] was -5.98 ± 0.27; in series [2], -3.09 ± 0.75.

“ACATTAGTGGATACAACCATAAAATGATAATTACACCCATAAATTGATCATTATCACACCCAATTTAACTATAACGCTCTGATCATAGTCAGACCAACATTGCTACGACCCGTATTCGCACCGACAC”: the “relative integration efficiency (log2)” value was -7.5 ± 0.15 in series [1] and -5.22 ± 1.2 in series [2].

As for “ACATTAGTTCATACAACCATAAAATGATAATTACACCCATAAATGGATAATTATCACACCCAATTTAACTATAACGCTCTGATCATAGTCAGACCAACATTGCTACGACCCGTATTCGCACCGACAC”, the results for the “relative integration efficiency (log2)” value in series [1] and in series [2] were -6.74 ± 0.15 and -3.62 ± 0.12, respectively.

For the sequence “ACATTAGTTCATACAACCATAAAATGATAATTACACCCATAAATGGATCATTATCACACCCAATTTAACTATAACGCTCTGATCATAGTCAGACCAACATTGCTACGACCCGTATTCGCACCGACAC”, the “relative integration efficiency (log2)” value in series [1] is -7.359 ± 0.025; in series [2], -7.73 ± 1.7.

For “ACATTAGTTCATACAACCATAAAATGATAATTACACCCATAAATTCATCATTATCACACCCAATTTAACTATAACGCTCTGATCATAGTCAGACCAACATTGCTACGACCCGTATTCGCACCGACAC”, the “relative integration efficiency (log2)” value was -7.69 ± 0.13 in series [1] and -5.32 ± 0.75 in series [2].

Turning to “ACATTAGTTGATACAACCATAAAATGATAATTACACCCATAAATGGATAATTATCACACCCAATTTAACTATAACGCTCTGATCATAGTCAGACCAACATTGCTACGACCCGTATTCGCACCGACAC”, the “relative integration efficiency (log2)” value in series [1] was -6.45 ± 0.32; in series [2] it was -4.68 ± 1.3.

Take “ACATTAGTTGATACAACCATAAAATGATAATTACACCCATAAATGGATCATTATCACACCCAATTTAACTATAACGCTCTGATCATAGTCAGACCAACATTGCTACGACCCGTATTCGCACCGACAC”: the “relative integration efficiency (log2)” value in series [1] was -6.02 ± 0.2; in series [2], -4.72 ± 0.67.

Take “ACATTAGTTGATACAACCATAAAATGATAATTACACCCATAAATTCATAATTATCACACCCAATTTAACTATAACGCTCTGATCATAGTCAGACCAACATTGCTACGACCCGTATTCGCACCGACAC”: the “relative integration efficiency (log2)” value in series [1] was -6.87 ± 0.4; in series [2], -4.45 ± 0.066.

As for “ACATTAGTTGATACAACCATAAAATGATAATTACACCCATAAATTCATCATTATCACACCCAATTTAACTATAACGCTCTGATCATAGTCAGACCAACATTGCTACGACCCGTATTCGCACCGACAC”, the “relative integration efficiency (log2)” value was -7.83 ± 0.12 in series [1] and -4.99 ± 0.51 in series [2].

In the case of “ACATTAGTTGATACAACCATAAAATGATAATTACACCCATAAATTGATCATTATCACACCCAATTTAACTATAACGCTCTGATCATAGTCAGACCAACATTGCTACGACCCGTATTCGCACCGACAC”, the “relative integration efficiency (log2)” value is -7.38 ± 0.13 in series [1] and -5.7 ± 0.14 in series [2].

Take “ACATTGGTCGATACAACCATAAAATGATAATTACACCCATAAATTCATAATTATCACACCCAATTTAACTATAACGCTCTGATCATAGTCAGACCAACATTGCTACGACCCGTATTCGCACCGACAC”: the “relative integration efficiency (log2)” value in series [1] was -7.939 ± 0.019; in series [2] it was -7.44 ± 1.2.

Regarding “ACATTGGTCGATACAACCATAAAATGATAATTACACCCATAAATTCATCATTATCACACCCAATTTAACTATAACGCTCTGATCATAGTCAGACCAACATTGCTACGACCCGTATTCGCACCGACAC”, the “relative integration efficiency (log2)” value in series [1] is -7.035 ± 0.062; in series [2], -5.19 ± 1.2.

“ACATTGGTCGATACAACCATAAAATGATAATTACACCCATAAATTGATAATTATCACACCCAATTTAACTATAACGCTCTGATCATAGTCAGACCAACATTGCTACGACCCGTATTCGCACCGACAC”: the “relative integration efficiency (log2)” value in series [1] was -7.79 ± 0.62; in series [2], -5.26 ± 0.85.

“ACATTGGTCGATACAACCATAAAATGATAATTACACCCATAAATTGATCATTATCACACCCAATTTAACTATAACGCTCTGATCATAGTCAGACCAACATTGCTACGACCCGTATTCGCACCGACAC”: the results for the “relative integration efficiency (log2)” value in series [1] and in series [2] were -7.023 ± 0.019 and -5.922 ± 0.042, respectively.

For the sequence “ACATTGGTGGATACAACCATAAAATGATAATTACACCCATAAATGGATAATTATCACACCCAATTTAACTATAACGCTCTGATCATAGTCAGACCAACATTGCTACGACCCGTATTCGCACCGACAC”, the “relative integration efficiency (log2)” value in series [1] is -7.53 ± 0.13; in series [2], -5.04 ± 0.46.

With “ACATTGGTGGATACAACCATAAAATGATAATTACACCCATAAATGGATCATTATCACACCCAATTTAACTATAACGCTCTGATCATAGTCAGACCAACATTGCTACGACCCGTATTCGCACCGACAC”, the “relative integration efficiency (log2)” value in series [1] is -7.25 ± 0.2; in series [2], -6.75 ± 1.

Turning to “ACATTGGTGGATACAACCATAAAATGATAATTACACCCATAAATTCATAATTATCACACCCAATTTAACTATAACGCTCTGATCATAGTCAGACCAACATTGCTACGACCCGTATTCGCACCGACAC”, the “relative integration efficiency (log2)” value is -6.19 ± 0.92 in series [1] and -4.36 ± 0.31 in series [2].

On to “ACATTGGTGGATACAACCATAAAATGATAATTACACCCATAAATTCATCATTATCACACCCAATTTAACTATAACGCTCTGATCATAGTCAGACCAACATTGCTACGACCCGTATTCGCACCGACAC”, for which the “relative integration efficiency (log2)” value in series [1] was -7.11 ± 0.38; in series [2] it was -4.79 ± 0.16.
